Assay results published in patent US12551573B2, “Compositions and methods for the targeting of PCSK9” (Scribe Therapeutics Inc., priority 2022, dated 2026).

These molecules were tested on HBEGF locus. Conditions: high-throughput screen of dXR repression of the HBEGF gene; abundance of each domain in the library before and after diphtheria toxin selection; HEK293T cells.
Assay type: cell-based, human

Molecule	Log2 (fold change)
DOMAIN_15138 (protein, Vulpes vulpes) CEGSVSFEDVTMDFSREEWQQLDPAQRCLYQDVMLEIYSHLLFVGYNIPNPEIISRMEKGEEPWMREVQLPHQRHRERAFG	3.1771
DOMAIN_14746 (protein, listed as Odocoileus virginianus) VTELLTFKDISVDFTQEEWGQLAPAHRNLYREVMLENYGNLVSVAGCQLSKPSVISQLEKGEEPWMTEKEGAGDPSSDLKS	2.605
DOMAIN_15227 (protein, listed as Rhinopithecus roxellana) MAFEDVAVYFSQEEWGLLDTAQRALYRHVMLDNFTLVTSLGLSTSRPHVVIQLERGEEPWVPSGKDMTLARNTYRRLNAGE	3.5532
DOMAIN_13691 (protein, listed as Sapajus apella) AQESVTFEDVAVNFTDREWQCLTYAQRHLYKDVMLENYGNMVSVGFLFPKPPLISHLERGVEPCVQDPQDRESLSCSCLVS	2.6205
DOMAIN_14946 (protein, listed as Acinonyx jubatus) LQVSVSFEDVTVNFSREEWQRLDPAQRRLYRDVTLENYSHLRSVGYQVPKPEVIFKLEQGEGPWTLEGETPHQSCSGEDIG	3.2842
DOMAIN_14983 (protein, listed as Rhinopithecus roxellana) MAFEDVAVYFSQEEWGLLDTAQRALYRRVMLDNFALVASLGLSTSRPRVVIQLERGEEPWVPSGTDTVLSRNTYRRRNPGS	3.704
DOMAIN_14714 (protein, listed as Odocoileus virginianus) PQESVTFEDVAVNFSYEEWQCLTHAQRHLYTDVMLENYGNMVSLGFSFSKPPLISRLEQGTEPYVQDRQDWEFLNCSYPAA	3.2752
DOMAIN_14287 (protein, listed as Bos indicus) VQGSVSFEDVAVGFSQEEWQILGPSQKALYWDVMLENYCNLVSVGYQAPTPNSLFQLEQGGPPWTVEGAALSPTCSGKKLY	3.6232
DOMAIN_15184 (protein, listed as Acinonyx jubatus) ASVVFEDVAVNFTPEEWALLNPGQRKLYRDVMLETCRNLSAVGCRSQGNTSTPRPQWSILLNEPPGEDKTGIFTRKDSCSV	3.0092
DOMAIN_14082 (protein, Phyllostomus discolor) SPTLVTFKDIHVNFTREEWNLLDAAQQIMYKDVMLENYKNLVSVGHQLPKPDVILQLEKGEEPWLVERGVRQDTRPDWDTA	3.2495
DOMAIN_14546 (protein, Muntiacus muntjak) GLLSFEDVALYFTREEWDTLDWAQKALYRDVMLDNYRHIVSLGFPFPKPEVICQLEQWEEPWILDLPRAGTRKASGSACPD	3.5039
DOMAIN_15089 (protein, Vulpes vulpes) SQELVAFEDVLVDFTPEEWQYLNSSQKTLYREVMLETYSNLVSVAGQQDTKPDLILKLELEGPCLAERKISVWSFPEEACQ	2.3585

Same assay, conditions: high-throughput screen of dXR repression of the HBEGF gene; change in abundance of each domain in the library before and after diphtheria toxin selection

Molecule	Log2 (fold change)
DOMAIN_18563 (protein, listed as Aotus trivirgatus) IQGQVNFEDVFVYFSQEEWVLLDEAQRLLYRDVMLENFALMASLGHTSFTSHTVASLVMGPDWVDVTPAVATGTLSGSGPG	3.0406
DOMAIN_17317 (protein, listed as Otolemur garnettii) SQASVSFKDVNVEFTQDEWQQMGPAQRNLYRDVMLENYSNLVSVGYCIFKPKVIFRLEQGEEPWSSEEEFSSQRRPKNYRD	3.4551
DOMAIN_16688 (protein, Lipotes vexillifer) SQEQVSFKDVCVDFTREEWYLLDPAQKILYRDVILENYSHLVSVGNCITKPEVIFKIEQGEEPWILEERFPKQCCSERNWK	3.5601
DOMAIN_13539 (protein, listed as Gorilla sp.) CYQDSVTFDDVAVDFTQEEWTLLDSTQRSLYSDVMLENYKNLATVGGQIIKPSLISWLEQEESRTVQGGVLRGRKTQWRGT	3.4924

Same assay, conditions: repressor domain in dXR, repression of the HBEGF gene; abundance of domain in library after vs before diphtheria toxin selection

Molecule	Log2 (fold change)
DOMAIN_12231 (protein, Nomascus leucogenys) PQESVAFEDVAVYFTAKEWDIMVPAERALYRDVMLENYEAVAFVVPPTSKPALVSHLEQGKESCFTRPQGVLCRNDWRAGL	2.6703
DOMAIN_12114 (protein, listed as Neophocaena asiaeorientalis) VQASLSFEDVAVRFTWEEWQLLDPSQKDLYRNVMLENYCNLVSVGYQTPKPDSLFQLEQGEPPWRVEGAGQSQTCPEEIWE	3.3227
DOMAIN_11908 (protein, listed as Canis lupus) CEGSVSFEDVTMDFSREEWQQLDPAQRCLYQDVMLEIYSHLLFVGYNIPNPEIISRMEKGEEPWMREIQLPHQRHRERAFG	2.894
DOMAIN_12896 (protein, listed as Macaca fascicularis) DTVVFEDVVVGFTLEEWALLNPAQRNLYREVMLETFKHLASVDNEAQPKTNGSISQQDTSGEKLSLKQKIEKFTRKHTWAS	2.0413
DOMAIN_12901 (protein, listed as Macaca fascicularis) MAFEDVAVYFSQEEWGLLDTAQRALYRHVMLENFTLVTSLGLSTSRPHVVIQLERGEEPWVPSGKDMTLARNTYRRLNAGE	3.5686
DOMAIN_12057 (protein, Muntiacus muntjak) LLESVTFGDVAVVFSRDEWLHLDAAQRSLYREVMLENYSALVSLGIPLSIPKLICQLQQGEDPCMVEREIPQDVCLGFKTW	2.0631
DOMAIN_11796 (protein, listed as Sus scrofa) FRGPVTFKDITVEFTQEEWQLLDNAQRTLYREVMQENYHHLISVGYCVNKPNAVFKLKQGKEPWILEVEFPRRNNPEDLWN	2.2811
DOMAIN_11581 (protein, listed as Equus caballus) LQVSVSFEDVTVDFSREEWQHLDPAQRRLYRDVTLENYSHLCSVGYQVPKPEVIFKLEQGEGPWMLEGEAPHQSCSDDDIG	3.1882
DOMAIN_12912 (protein, Puma concolor) LQVSVSFEDVTVNFSREEWQHLDPAQRRLYRDVTLENYSHLRSVGYQVPKPEVIFKLEQGEGPWTLEGETPHQSCSGEDIG	2.7422
DOMAIN_13269 (protein, listed as Desmodus rotundus) LQVSVSFEDVTVDFSREEWQHLDPAQRRLYWDVTLENYSHLLSVGYQVPKPEVILKLEQGEGPWTLEGETPHQSCSDEDIG	2.7236
DOMAIN_12755 (protein, listed as Oryctolagus cuniculus) SLGPVSFKDVAVGFTQEEWRQLEPAQRRTYREVMLENYSHLVAVGCHFIKPDVITKLERGEEPWIEGGFLPQGCADEVWQA	2.8082
DOMAIN_11944 (protein, listed as Bos indicus) PQESVTFEDVAVNFSHEEWQCLTHAQRHLYKDVMLENYGNMVSLGFSFSKPPLISRLEQGTEPYVQDRQDWEFLSCSYPVS	3.2762
DOMAIN_12550 (protein, listed as Ailuropoda melanoleuca) SDEAFSFEDLSVDFTQKEWQLLNPGQKDLYKDVMLENYSSLVSLGYEIMKPDVIFKLEQGEEPWIGDGEVPSSGCPADMSY	3.0229
DOMAIN_11988 (protein, Muntiacus muntjak) MAFEDVAVHFSQEEWGLLDTAQRSLYRRVMLENFALLASLGLSVSRPHVVTQLERGEEPWVLSGVDVTLPQDAQRRPRRGS	3.5916
DOMAIN_12590 (protein, listed as Bos indicus) AQEPVTFNDVAVDFTQEEWGQLDLVQRTLYRDVMLETYGHLLSVGNQITKPEVISLLEQGEEPWSMEPAYPLQGTCPAPEI	2.5531
DOMAIN_12206 (protein, listed as Bos mutus) QEQVSFKDVCVDFTQEEWYLLDPAQKILYRDVILENYSHLVSVGNCITKPEVIFKIEQGEEPWILEERFPKQWHSGKSYKY	2.9101
DOMAIN_12285 (protein, listed as Gorilla sp.) EPGAVSFADVAVYFCREEWGCLRPAQRTLYRDVMRETYGHLSALGIGGKKPALISWVEEEAELWGPAAQDPEVAKCPTQTD	2.2573
DOMAIN_13277 (protein, listed as Macaca fascicularis) MTFEDVSVEFTQGEWGQLNPAQKDLYREVMLENFRNLAFLGLPVSKPYVICQLEEGGEPFIVEREVSTGAYSDWERRSKSK	2.9151
DOMAIN_13121 (protein, listed as Macaca fascicularis) GKELLSFEDVAMYFTREEWGRLDWGQKDLYRDVMLENYRNMVLLGFQFPKPEVICQLENWDEQWILDLPRAGSRKASGSAC	3.353
